Read-outs that look alike come from different tables or passages of the source.
T1: FcγRIIb (Pichia pastoris produced) (UniProt P31994 43-217, limits assumed)
T1 construct: also called FcgRIIB; CD32B
T1 sequence (looked up): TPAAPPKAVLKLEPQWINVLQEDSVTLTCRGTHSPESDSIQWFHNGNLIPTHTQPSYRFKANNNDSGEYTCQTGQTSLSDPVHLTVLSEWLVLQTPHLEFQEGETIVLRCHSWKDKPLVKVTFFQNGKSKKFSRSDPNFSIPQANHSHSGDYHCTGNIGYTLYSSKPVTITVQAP

T2: FcγRIIa (Pichia pastoris produced) (UniProt P12318 34-217, limits assumed)
T2 construct: also called CD32A
T2 sequence (looked up): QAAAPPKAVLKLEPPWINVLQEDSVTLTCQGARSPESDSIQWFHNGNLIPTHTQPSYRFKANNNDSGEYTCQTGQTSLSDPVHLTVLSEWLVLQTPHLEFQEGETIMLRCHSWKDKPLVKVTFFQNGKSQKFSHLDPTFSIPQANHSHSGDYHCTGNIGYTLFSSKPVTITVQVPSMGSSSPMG

T3: FcγRIIA H (UniProt P12318 34-217, limits assumed)
T3 construct: also called FcgRIIA H
T3 sequence (looked up): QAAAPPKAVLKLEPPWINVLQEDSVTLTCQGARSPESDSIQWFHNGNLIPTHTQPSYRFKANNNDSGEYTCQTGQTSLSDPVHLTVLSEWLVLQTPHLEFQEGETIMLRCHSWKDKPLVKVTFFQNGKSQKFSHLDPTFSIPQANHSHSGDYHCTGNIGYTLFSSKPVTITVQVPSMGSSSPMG


What was measured:
[1] = target: T1, FcγRIIb (Pichia pastoris produced); assay: ELISA-type plate assay, FcγR coated, antibody dimerized with AP-conjugated goat anti-human IgG F(ab')2, RFU readout
[2] = target: T2, FcγRIIa (Pichia pastoris produced); assay: as above
Description: (§1) Fcγ receptor binding assays were carried out as described (Shields, et al. (2001) J. Biol. Chem. 276:6591-6604) with minor modifications. High protein binding 96-well plates (Corning Costar) were coated with 100 μL per well of Fcγ receptor solutions in PBS at the following concentrations: 1 μg/mL for both FcγRI (R&D Systems) and FcγRIIa (Pichia pastoris produced), 2 μg/mL for FcγRIIb (P. pastoris produced), 0.8 μg/mL for FcγRIIIa-F158, and 0.4 μg/mL for FcγRIIIa-V158 (both P. pastoris produced). All Pichia pastoris produced receptors were expressed and purified as described (Li, et al. (2006) Nature Biotechnology 24:210-215). Monomeric antibody samples added to the FcγRI plate were serially diluted in assay diluent (1×PBS, 1% BSA, and 0.05% Tween20) and 100 μL, per well was added to the plate. Antibody samples prepared for the remaining receptors require a one hour dimerization step with half molar ratio of goat anti-human IgG F(ab′)2 F(ab′)2 that is conjugated with alkaline phosphatase for detection. These dimerized F(ab′)2/antibody complexes were also serially diluted and 100 μL per well were added to the remaining receptor plates and all plates were incubated for one hour at room temperature. FcγRI bound sample antibody was detected using the same goat anti-human IgG F(ab′)2 alkaline phosphatase conjugated F(ab′)2. Sample antibody binding was quantified by measuring excitation at 340 nm and emission at 465 nm after 18 hour incubation with SuperPhos, 4-MUP Fluorescence AP Substrate Detection System (Virolabs).

[3] = target: T4, FcγRIIIa-F158 (Pichia pastoris produced) (UniProt P08637 17-208, limits assumed); assay: as above
T4 construct: also called FcγRIIIA LF; FcgRIIIA LF
Description: as §1

[4] = target: T1, FcγRIIb (Pichia pastoris produced); assay: as above; remark: listed apart in the source
Description: as §1

[5] = target: T4, FcγRIIIa-F158 (Pichia pastoris produced); assay: as above; remark: listed apart in the source
Description: as §1

[6] = target: T1, FcγRIIb (Pichia pastoris produced); assay: as above; remark: listed apart in the source
Description: as §1

[7] = target: T3, FcγRIIA H; assay: FcγR affinity assay 'as described in Example 7', n = 3; printed as Affinity (nM) ± STDEV
Description: as §1

[8] = target: T1, FcγRIIb (Pichia pastoris produced); assay: as above
Description: as §1

[9] = target: T1, FcγRIIb (Pichia pastoris produced); assay: fold change of the Table 12 affinities; Table 13 fold change computed from the Table 12 affinities
Description: as §1, with “These dimerized F(ab′)2/antibody complexes were also serially diluted and 100 μL per well were added to the remaining receptor plates and all plates were incubated for one hour at room temperature.” left out

[10] = target: T4, FcγRIIIa-F158 (Pichia pastoris produced); assay: ELISA on plate-coated receptor; antibody dimerized with anti-human IgG F(ab')2-AP; ELISA IC50, YGLY23258 (dimer), Table 3 experiment
Description: as §1, with “These dimerized F(ab′)2/antibody complexes were also serially diluted and 100 μL per well were added to the remaining receptor plates and all plates were incubated for one hour at room temperature.” left out

[11] = target: T5, FcγRIIIa-V158 (Pichia pastoris produced) (UniProt P08637 17-208, limits assumed); assay: as above
T5 construct: also called FcγRIIIA LV; FcgRIIIA LV
Description: as §1, with “These dimerized F(ab′)2/antibody complexes were also serially diluted and 100 μL per well were added to the remaining receptor plates and all plates were incubated for one hour at room temperature.” left out

[12] = target: T6, FcγRI (R&D Systems) (UniProt P12314 16-288); assay: summary of the FcγR ELISAs
T6 construct: Bought reagent, coated on the plate at 1 µg/mL; also called Fc gamma receptor I; CD64
Description: as §1

[13] = target: T4, FcγRIIIa-F158 (Pichia pastoris produced); assay: summary of the FcγR ELISAs
Description: as §1

[14] = target: T5, FcγRIIIa-V158 (Pichia pastoris produced); assay: summary of the FcγR ELISAs
Description: as §1

[15] = target: T4, FcγRIIIa-F158 (Pichia pastoris produced); assay: fold change of the Table 12 affinities
Description: as §1

[16] = target: T5, FcγRIIIa-V158 (Pichia pastoris produced); assay: fold change of the Table 12 affinities
Description: as §1

T5 sequence (P08637 17-208 F176V limits assumed): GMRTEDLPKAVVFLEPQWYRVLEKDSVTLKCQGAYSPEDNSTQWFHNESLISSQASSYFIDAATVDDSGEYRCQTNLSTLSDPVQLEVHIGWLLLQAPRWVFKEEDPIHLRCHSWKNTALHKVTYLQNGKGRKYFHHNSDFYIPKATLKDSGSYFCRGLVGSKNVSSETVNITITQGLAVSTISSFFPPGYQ
T4 sequence (P08637 17-208 limits assumed): as the sequence (P08637 17-208 F176V limits assumed) above, with V160F counted along it
T6 sequence (P12314 16-288 limits assumed): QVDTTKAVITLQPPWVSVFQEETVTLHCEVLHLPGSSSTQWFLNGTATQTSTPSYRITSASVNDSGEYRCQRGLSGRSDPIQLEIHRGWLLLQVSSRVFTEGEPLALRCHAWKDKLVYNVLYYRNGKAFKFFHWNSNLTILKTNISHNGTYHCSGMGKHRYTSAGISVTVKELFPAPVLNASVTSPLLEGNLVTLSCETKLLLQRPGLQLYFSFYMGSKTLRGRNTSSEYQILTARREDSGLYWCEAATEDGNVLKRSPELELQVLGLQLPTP

Row | EC50 (read off the curve) [1] | EC50 (read off the curve) [2] | EC50 (read off the curve) [3] | EC50 (read off the curve) [4] | EC50 (read off the curve) [5] | EC50 (read off the curve) [6] | Kd [7] | Kd [8] | fold change in affinity vs 1F11 IgG1 GS5.0 [9] | IC50 [10] | IC50 [11] | decreased affinity fold vs wildtype parent antibody produced in GS 5.0 [12] | decreased affinity fold vs wildtype parent antibody produced in GS 5.0 [13] | decreased affinity fold vs wildtype parent antibody produced in GS 5.0 [14] | fold change in affinity vs 1F11 IgG1 GS5.0 [15] | fold change in affinity vs 1F11 IgG1 GS5.0 [16] | Binder
1 | ~0.4 µg/mL | ~0.03 µg/mL | ~0.02 µg/mL | ~0.2 µg/mL | ~0.02 µg/mL | ~0.2 µg/mL | 892 nM | 545 nM | – | – | – | – | – | – | – | – | 1F11 wildtype (parent) humanized anti-PCSK9 monoclonal IgG1 antibody (antibody, Produced in glycoengineered Pichia pastoris GFI5.0 (strain YGLY21351); also called 1F11 IgG1 GS5.0; YGLY21351) heavy: not shown light: DIQMTQSPSSLSASVGDRVTITCKASQNVGTNVVWYQQKPGKAPKALIHSASYRYSGVPSRFSGSGSGTDFTLTISSLQPEDFATYYCQQYKTYPYTFGQGTKVEIKRTVAAPSVFIFPPSDEQLKSGTASVVCLLNNFYPREAKVQWKVDNALQSGNSQESVTEQDSKDSTYSLSSTLTLSKADYEKHKVYACEVTHQGLSSPVTKSFNRGEC
2 | – | – | – | – | – | – | – | – | 3 fold | 0.6 µg/mL | 0.09 µg/mL | 4 fold | 8 to 60 fold | 2 to 6 fold | 12 fold | 647 fold | 1F11 IgG1 F243A/V264A double mutein anti-PCSK9 antibody (antibody, sialylated N-glycans; also called 1F11 DM; YGLY23258) heavy: not shown light: DIQMTQSPSSLSASVGDRVTITCKASQNVGTNVVWYQQKPGKAPKALIHSASYRYSGVPSRFSGSGSGTDFTLTISSLQPEDFATYYCQQYKTYPYTFGQGTKVEIKRTVAAPSVFIFPPSDEQLKSGTASVVCLLNNFYPREAKVQWKVDNALQSGNSQESVTEQDSKDSTYSLSSTLTLSKADYEKHKVYACEVTHQGLSSPVTKSFNRGEC

From patent publication US20140086916A1 (Merck Sharp & Dohme, published 2014)
